# Measurements published in PMC8316464, “Structures of the ApoL1 and ApoL2 N-terminal domains reveal a non-classical four-helix bundle motif” (Communications Biology, 2021).
# T1: Bcl-w (human, UniProt Q92843 1-193)
# T1 construct: Bcl-w, human recombinant; source: bought: R&D Systems
# T1 sequence (looked up): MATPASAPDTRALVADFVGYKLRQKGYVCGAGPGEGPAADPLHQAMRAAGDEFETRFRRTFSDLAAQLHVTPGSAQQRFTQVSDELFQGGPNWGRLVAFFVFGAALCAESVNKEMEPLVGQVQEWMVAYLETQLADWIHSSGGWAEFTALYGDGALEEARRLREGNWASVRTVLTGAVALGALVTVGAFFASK
# T2: Bfl-1 (human, UniProt Q16548 1-175)
# T2 construct: Bfl-1 (Bcl-2-related protein A1), human recombinant; also called Bcl-2-related protein A1; source: bought: R&D Systems
# T2 sequence (looked up): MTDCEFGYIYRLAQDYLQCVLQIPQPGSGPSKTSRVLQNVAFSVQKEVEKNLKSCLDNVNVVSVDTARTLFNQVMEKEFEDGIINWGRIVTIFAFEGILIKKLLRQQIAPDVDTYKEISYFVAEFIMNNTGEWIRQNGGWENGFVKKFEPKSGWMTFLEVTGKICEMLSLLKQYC
# T3: ApoL1-peptide (BH3-like peptide E152–H169) (human, UniProt O14791)
# T3 construct: Apolipoprotein L1, human, residues E152-H169; also called ApoL1-BH3 peptide; BH3 peptide; source: synthetic peptide (NEO Scientific)
# T3 chain: EDNIRRLRALADGVQKVH
# How the values were obtained:
# [1] = biological target: T1, Bcl-w; assay: SPR; Biacore S200; Bcl-2 family proteins immobilised on CM5 (amine coupling or His-Capture Kit); peptides and flag-tagged proteins as analytes, single-cycle kinetics, HBS-EP, 25 °C; 1:1 Langmuir model; absence of binding probed at 100 nM and 3 µM; settings: both partners purified
# [2] = biological target: T2, Bfl-1; assay: as above; settings: both partners purified
# [3] = biological target: T4, flag-tagged ApoL1-NTD (D61–T172) (human, UniProt O14791); assay: SEC-MALS; XBridge BEH 200 Å column in PBS, 0.02% sodium azide, 1 ml/min; complex formed with a twofold molar excess of ApoL1-NTD (46.8 µM) over Fab7D6, 30 min at room temperature; components also run alone; settings: both partners purified
# T4 construct: Apolipoprotein L1, human, N-terminal domain residues D61-T172; E150 variant; the tag is said to be removed only for X-ray studies; source: Sf9 insect cells (baculovirus), purified (anti-flag resin, S75 size exclusion)
# [4] = biological target: T3, ApoL1-peptide (BH3-like peptide …); assay: crystal structure; Fab complexes formed with 1.5 molar excess of NTD and purified on Superdex-200 in 0.15 M NaCl, 25 mM Tris pH 8.0, about 10 mg/ml; Fab7D6 also crystallised with the synthetic peptide E152–H169; settings: both partners purified
# [5] = biological target: T5, full-length ApoL1 with N-terminal flag-tag (human, UniProt O14791-1); assay: SPR; Biacore T200; anti-ApoL1 antibodies captured (~250 RU) by anti-murine Fc antibody on a CM5 chip; ApoL1 0.8–500 nM injected in HBS-P (10 mM HEPES pH 7.4, 150 mM NaCl, 0.005% P20) at 37 °C, 100 µl/min; 1:1 Langmuir model; KD = koff/kon; settings: both partners purified
# T5 construct: also called Apolipoprotein L1; not shown: FLAG, N-terminal, kept
# [6] = biological target: T6, human untagged ApoL2 expressed in COS7 cells (Homo sapiens, UniProt Q9BQE5); assay: immunoprecipitation; 20 µg antibody pre-immobilised on Dynabeads Protein G, incubated 20 min at RT with M-PER lysates of cells expressing ApoL1-6 (35 µg total protein for ApoL1-3, 500 µg for ApoL4-6); four washes PBS/0.02% Tween-20; blot with anti-ApoL1/2 or anti-Myc; settings: one partner purified
# T6 construct: Apolipoprotein L2, human, untagged; source: COS7, transiently transfected; in lysate (immunoprecipitation) or in fixed, permeabilized cells (immunofluorescence)
# [7] = biological target: T7, ApoL3-Myc-Flag (Homo sapiens, UniProt O95236); assay: as above; settings: one partner purified
# T7 construct: Apolipoprotein L3, human; The homology model (not this construct) used isoform 1, NP_663615.1; source: COS7, transiently transfected; in lysate (immunoprecipitation) or in fixed, permeabilized cells (immunofluorescence); not shown: Myc, C-terminal, kept; FLAG, C-terminal, kept
# [8] = biological target: T8, ApoL4-Myc (Homo sapiens, UniProt Q9BPW4); assay: immunostaining of cells or tissue; transiently transfected COS7 cells fixed (3% paraformaldehyde) and permeabilized (0.1% Triton-X-100); mouse anti-ApoL1 antibodies at 2 µg/ml in PBS, 1 h, room temperature; Alexa488-anti-mouse; co-stained with anti-myc; settings: one partner purified
# T8 construct: Apolipoprotein L4, human; The homology model (not this construct) used isoform 2, NP_663693; source: COS7, transiently transfected; in lysate (immunoprecipitation) or in fixed, permeabilized cells (immunofluorescence); not shown: Myc, C-terminal, kept
# [9] = biological target: T9, ApoL2-NTD (N2-T113), His tag removed (human, UniProt Q9BQE5); assay: crystal structure; Fab complexes formed with 1.5 molar excess of NTD and purified on Superdex-200 in 0.15 M NaCl, 25 mM Tris pH 8.0, about 10 mg/ml; Fab7D6 also crystallised with the synthetic peptide E152–H169; settings: both partners purified
# T9 construct: Apolipoprotein L2, human, N-terminal domain residues N2-T113, Genbank NP_112092.2; source: Sf9 insect cells (baculovirus), purified (Ni resin, S75, TEV digestion, S75)
# T9 sequence (Q9BQE5 other isoform, or with tags, fused parts or gaps): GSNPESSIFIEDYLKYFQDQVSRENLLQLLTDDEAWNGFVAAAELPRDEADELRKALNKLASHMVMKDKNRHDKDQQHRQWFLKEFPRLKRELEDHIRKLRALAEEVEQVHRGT
# T5 sequence (O14791 28-398): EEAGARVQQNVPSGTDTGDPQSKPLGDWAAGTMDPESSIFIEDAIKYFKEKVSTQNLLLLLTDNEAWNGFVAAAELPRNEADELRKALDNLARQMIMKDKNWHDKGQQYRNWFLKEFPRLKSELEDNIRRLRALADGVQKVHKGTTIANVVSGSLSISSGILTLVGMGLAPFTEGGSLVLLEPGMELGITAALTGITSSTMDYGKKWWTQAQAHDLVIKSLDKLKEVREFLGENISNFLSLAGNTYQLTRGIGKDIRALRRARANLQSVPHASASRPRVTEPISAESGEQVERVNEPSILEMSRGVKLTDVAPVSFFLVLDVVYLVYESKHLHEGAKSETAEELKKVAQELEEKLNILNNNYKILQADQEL
# T6 sequence (Q9BQE5 whole entry): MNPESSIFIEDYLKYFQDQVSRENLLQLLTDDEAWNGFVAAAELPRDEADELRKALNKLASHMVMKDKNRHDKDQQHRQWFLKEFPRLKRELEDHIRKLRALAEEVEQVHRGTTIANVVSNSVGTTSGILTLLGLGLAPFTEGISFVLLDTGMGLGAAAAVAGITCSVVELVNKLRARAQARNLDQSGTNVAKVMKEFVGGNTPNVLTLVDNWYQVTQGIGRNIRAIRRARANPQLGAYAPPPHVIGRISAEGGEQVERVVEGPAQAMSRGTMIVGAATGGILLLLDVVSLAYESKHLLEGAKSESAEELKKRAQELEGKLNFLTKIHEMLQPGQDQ
# T7 sequence (O95236 whole entry, canonical isoform): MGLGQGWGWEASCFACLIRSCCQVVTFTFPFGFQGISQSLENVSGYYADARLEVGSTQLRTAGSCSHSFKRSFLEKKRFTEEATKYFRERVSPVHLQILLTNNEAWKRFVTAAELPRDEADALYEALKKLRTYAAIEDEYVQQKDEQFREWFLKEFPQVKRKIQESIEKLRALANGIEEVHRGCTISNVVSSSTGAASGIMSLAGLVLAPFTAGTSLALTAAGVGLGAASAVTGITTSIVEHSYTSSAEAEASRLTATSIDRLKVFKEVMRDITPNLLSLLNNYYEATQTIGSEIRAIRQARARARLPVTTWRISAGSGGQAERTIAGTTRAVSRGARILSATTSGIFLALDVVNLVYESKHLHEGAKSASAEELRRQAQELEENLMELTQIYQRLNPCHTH
# T8 sequence (Q9BPW4 22-351): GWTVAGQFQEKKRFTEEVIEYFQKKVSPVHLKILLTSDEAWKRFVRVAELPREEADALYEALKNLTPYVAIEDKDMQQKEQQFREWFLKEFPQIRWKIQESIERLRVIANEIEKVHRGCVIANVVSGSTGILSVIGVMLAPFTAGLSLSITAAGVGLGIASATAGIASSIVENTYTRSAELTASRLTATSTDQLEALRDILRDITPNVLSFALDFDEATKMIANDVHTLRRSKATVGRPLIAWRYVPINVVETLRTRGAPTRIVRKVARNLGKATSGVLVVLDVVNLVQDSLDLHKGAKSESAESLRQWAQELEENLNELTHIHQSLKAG
# T4 sequence (O14791 61-172): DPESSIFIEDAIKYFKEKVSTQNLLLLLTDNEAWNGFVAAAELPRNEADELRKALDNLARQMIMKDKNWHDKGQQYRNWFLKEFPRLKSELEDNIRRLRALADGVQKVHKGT
Binder,Kd [1] [nM],Kd [2] [nM],Kd [5] [nM],other results
"ESQEDIIRNIARHLAQVGDSMDRSI (Bid, BH3-only motif, residues 77-101; source: synthetic peptide (ABclonal, >95% purity)) [Bid BH3 peptide (25-mer, residues 77-101)]",24.2,0.31,,
"Fab7D6 (Fab, V domains shown, Chimeric Fab: mouse variable domains on human constant domains; also called Fab of Ab7D6; 3.7D6 Fab; source: E. coli strain 64B4, secreted into the periplasm, purified (protein G, SP Sepharose, Superdex 75)) VH: QIQLVQSGPDLKKPGETVKISCRTSGYAFTNYGVNWVKQAPGKGLKWMGWINTNTGQTTYAEEFRGRFAISLETSASTAFLTISNLKNEDSATYFCARLIYDGDYISSDFWGQGTTLTVSS VL: DIQMTQSPDSLSASVGETVTITCGASENIYGALNWYQRKQGKSPQLLIYGATNLADGMSSRFSGSRSGRQYSLKISSLHPDDVATYYCQNALSMPYTFGGGTNLETK",,,,stoichiometry N [3]: 1; binding result [4]: binds
"Ab7D6 (antibody, V domains shown, mouse VH, as the variable part of the heavy chain of m3; mouse heavy chain constant region; mouse VL, as the variable part of the light chain of m3; mouse light chain constant region; Mouse anti-human ApoL1 antibody; also called 3.7D6) VH: QIQLVQSGPDLKKPGETVKISCRTSGYAFTNYGVNWVKQAPGKGLKWMGWINTNTGQTTYAEEFRGRFAISLETSASTAFLTISNLKNEDSATYFCARLIYDGDYISSDFWGQGTTLTVSS VL: DIQMTQSPDSLSASVGETVTITCGASENIYGALNWYQRKQGKSPQLLIYGATNLADGMSSRFSGSRSGRQYSLKISSLHPDDVATYYCQNALSMPYTFGGGTNLETK",,,1.63,
"Ab6D12 (antibody, V domains shown, mouse VH, as the variable part of the heavy chain of m1; mouse heavy chain constant region; mouse VL, as the variable part of the light chain of m1; mouse light chain constant region; Mouse anti-human ApoL1 antibody; also called 3.6D12; murine Ab6D12) VH: EVMLVESGGGLVRPGGSLKLSCTASGFTFSRCAMSWVRQTPEKRLEWVSAISRDSTYTYYSDSVKGRFTVSRDNAKNTLYLQMSSLRSEDTAMYYCARQIDDYYVDALDYWGQGTSVTVSS VL: DVQITQSPSYLAASPGETITINCRASKIISKYLAWYQEKPGKTIKLLIYSGFTLQSGIPSRFSGSGSGTDFTLTISSLEPEDFAMYYCQQHNEYPLTFGAGTKLEIK",,,0.86,binding result [6]: binds; binding result [7]: binds; binding result [8]: binds
"Fab6D12 (Fab, V domains shown, Chimeric Fab: mouse variable domains on human constant domains; also called Fab of Ab6D12; 3.6D12 Fab; source: E. coli strain 64B4, secreted into the periplasm, purified (protein G, SP Sepharose, Superdex 75)) VH: EVMLVESGGGLVRPGGSLKLSCTASGFTFSRCAMSWVRQTPEKRLEWVSAISRDSTYTYYSDSVKGRFTVSRDNAKNTLYLQMSSLRSEDTAMYYCARQIDDYYVDALDYWGQGTSVTVSS VL: DVQITQSPSYLAASPGETITINCRASKIISKYLAWYQEKPGKTIKLLIYSGFTLQSGIPSRFSGSGSGTDFTLTISSLEPEDFAMYYCQQHNEYPLTFGAGTKLEIK",,,,binding result [9]: binds
"Ab3B6 (antibody, V domains shown, mouse VH, as the variable part of the heavy chain of m2; mouse heavy chain constant region; mouse VL, as the variable part of the light chain of m2; mouse light chain constant region; Mouse anti-human ApoL1 antibody; also called 3.3B6) VH: QVQLQQSGAELARPGASVKLSCKASGYTFTSHWMQWLKQRPGQGLEWIGAIYPGDGDTKFTQKFKDKATLTADKSSTTAYMQLSSLASEDSAVYYCARENLYGYYFDYWGQGTTLTVSS VL: QAVVTQESALTTSPGETVTLTCRSSTGAVTSGNFANWVQEKPDHLFTGLIGGADNRAPGVPARFSGSLIGDKAALIITGAQTEDEAIYFCALWYSDHWVFGGGTKLTVL",,,1.56,binding result [6]: binds; binding result [7]: binds

# Continued, in another order:
Kd [1] [nM],Kd [2] [nM],Kd [5] [nM],Binder,other results
65.2,1430,,"ESQEDIIRNIIRHLAQVGDSMDRSI (source: synthetic peptide (ABclonal, >95% purity)) [Bid (A87I) peptide]",
23.1,18.8,,"DMRPEIWIIQELRRIGDEFNAYYAR (also called Bim (A149A) (as printed in the methods); source: synthetic peptide (ABclonal, >95% purity)) [Bim (A149I) peptide]",
